In paper PMC2876975:

Tests used:
[1] = target: c-Myc–HMPV P, in vitro translated, unlabelled (human metapneumovirus strain TN/96-12); assay: co-IP
[2] = target: c-Myc–HMPV N, in vitro translated, unlabelled (human metapneumovirus strain TN/96-12); assay: co-IP

| Substance | percent co-immunoprecipitated [1] | percent co-immunoprecipitated [2] |
| --- | --- | --- |
| Radiolabelled native HMPV N, in vitro translated (natural protein) | < 1% |  |
| Radiolabelled native HMPV P, in vitro translated (natural protein) |  | < 1% |
